Experimental findings from patent US20250222069A1 (ACCELERON PHARMA, published 2025) are described below.

Positions count from the first letter of the chain named.

The target in this test is T1, GDF11 (UniProt O95390 299-407).
T1 construct: also called BMP11
T1 sequence (looked up): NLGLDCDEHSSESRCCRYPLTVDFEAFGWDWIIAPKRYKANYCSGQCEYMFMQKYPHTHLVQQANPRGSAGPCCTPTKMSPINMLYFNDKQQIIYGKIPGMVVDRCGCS
As to the kind of experiment: Biacore; ligand coupled to chip, receptor flowed over (table reproduced from WO2006/012627). (In general: SPR reads the build-up and loss of mass on a sensor chip optically.)

B1: Soluble ActRIIB-Fc D80I (Fc fusion, not shown: a dimerising Fc or GST)
chain: SGRGEAETRECIYYNANWELERTNQSGLERCEGEQDKRLHCYASWANSSGTIELVKKGCWLIDFNCYDRQECVATEENPQVYFCCCEGNFCNERFTHLPEA
notes: From WO2006/012627; background 64A inferred
Take B1: the “binding as fraction of WT binding” value is under 0.2 fold.

B2: Soluble ActRIIB-Fc K74I (Fc fusion, not shown: a dimerising Fc or GST)
chain: B1 chain with K56I, I62D
notes: as for B1
For B2, the “binding as fraction of WT binding” value was under 0.2 fold.

B3: Soluble ActRIIB-Fc K74Y (Fc fusion, not shown: a dimerising Fc or GST)
chain: B1 chain with K56Y, I62D
notes: as for B1
As to B3, the “binding as fraction of WT binding” value was under 0.2 fold.

B4: Soluble ActRIIB-Fc K74F (Fc fusion, not shown: a dimerising Fc or GST)
chain: B1 chain with K56F, I62D
notes: as for B1
With B4, the “binding as fraction of WT binding” value is under 0.2 fold.
